In patent US8728470B2, “CAB molecules” (Danisco US Inc., priority 2004, dated 2014):

Assay: Immunogenicity after IV or IP administration to normal mice (IgG1 antibodies)
Assay type: in vivo, CB6F1/J mice
Conditions: 20 ug in alum, days 1, 8 and 15, FIG. 20
Experimental: CAB1.11i and CAB1.2i were diluted in PBS to 200 ug/ml. For the i.p. group (group 5), CAB1.11i was diluted in a 1:1 solution of alum to PBS (resulting concentration=200 ug/ml) and vortexed rapidly for 10 minutes. The mixture was left at 2-8° C. for a minimum of 15 minutes. The mixture was revortexed 1 minute prior to injection into mice. The dosing solution was stored on ice prior to administration.
Wt BLA was diluted in PBS to 400 ug/ml. For the i.p. group, group 4, wt BLA was diluted in a 1:1 solution of alum to a PBS with resulting concentration=200 ug/ml and vortexed rapidly for 10 minutes. The mixture was left at 2-8° C. for a minimum of 15 minutes. The mixture was then revortexed 1 minute prior to injection into mice. The solution was stored on ice prior to administration.
Study design is outlined in Table 7. Female CB6F1/J mice were used for each group. Mice undergoing i.v. injections were placed under a heating lamp for approximately 3 minutes to vasodilate the tail vein, and then placed in a mouse restrainer for the i.v. injection. On days 1, 8 and 15, three mice of each strain each were administered CAB1.2i (20 ug), CAB1.11i (20 ug), or wt BLA (20 ug) intravenously, or wt BLA (20 ug) or CAB1.11i (20 ug) complexed with alum administered by an i.p. injection. Dose concentrations and volumes are outlined in Table 8. Dose concentrations were formulated based on a 100 uL injection/mouse. […]

B1: beta-lactamase: unmodified beta-lactamase protein, SEQ ID NO:11 (protein)
chain: TPVSEKQLAEVVANTITPLMKAQSVPGMAVAVIYQGKPHYYTFGKADIAANKPVTPQTLFELGSISKTFTGVLGGDAIARGEISLDDAVTRYWPQLTGKQWQGIRMLDLATYTAGGLPLQVPDEVTDNASLLRFYQNWQPQWKPGTTRLYANASIGLFGALAVKPSGMPYEQAMTTRVLKPLKLDHTWINVPKAEEAHYAWGYRDGKAVRVSPGMLDAQAYGVKTNVQDMANWVMANMAPENVADASLKQGIALAQSRYWRIGSMYQGLGWEMLNWPVEANTVVETSFGNVALAPLPVAEVNPPAPPVKASWVHKTGSTGGFGSYVAFIPEKQIGIVMLANTSYPNPARVEAAYHILEALQ
modifications: beta-lactamase protein
antibody response (anti-test article IgG1): greatest antibody response
